Experimental data taken from US20170335004A1 (LA TROBE UNIVERSITY, published 2017).

Assays:
[1] = biological target: T1, hFn14-Fc (Fc-tagged ectodomain of human Fn14) (human, UniProt Q9NP84 29-78); experiment: SPR (ProteOn XPR36), hFab amine-coupled, hFn14-Fc as analyte, Langmuir fit, average of 5 measurements
T1 construct: also called Fc-tagged hFn14; not shown: Fc tag
Description: The affinity of wildtype Fab clone 6.5 and the light chain shuffled mutants was measured by surface Plasmon resonance (SPR) using the ProteOn XPR36TM instrument (BioRad). Individual channels of a six channel GLC chip were coupled with the relevant hFab ligand at 5 μg/ml in 0.1M sodium acetate buffer pH 4.5 using amine coupling according to the manufacturer's instructions. Five dilutions of analyte hFn14-Fc were prepared in PBS containing 0.005% Tween20 (running buffer) and allowed to flow over the coupled hFab at […] flow rate for 500 seconds to evaluate the “on rate” (ka). This was followed by flow with the running buffer for 1200 seconds to evaluate the “off rate” (kd). This process was repeated until the analyte dilution series allowed a good kinetic fit using the Langmuir statistical model for analysing the ka and kd, where the affinity constant (KD) is the kd/ka. The best fit data was analysed using the ProteOn software measured by Chi2, where the lowest value is the best fit of the model to the SPR binding curves.

[2] = biological target: T2, BSA (bovine, UniProt P02769); experiment: ELISA of purified hFab 6.5 on a panel of coated antigens, absorbance 450 nm
T2 construct: also called bovine serum albumin
T2 sequence (P02769 25-607 limits assumed): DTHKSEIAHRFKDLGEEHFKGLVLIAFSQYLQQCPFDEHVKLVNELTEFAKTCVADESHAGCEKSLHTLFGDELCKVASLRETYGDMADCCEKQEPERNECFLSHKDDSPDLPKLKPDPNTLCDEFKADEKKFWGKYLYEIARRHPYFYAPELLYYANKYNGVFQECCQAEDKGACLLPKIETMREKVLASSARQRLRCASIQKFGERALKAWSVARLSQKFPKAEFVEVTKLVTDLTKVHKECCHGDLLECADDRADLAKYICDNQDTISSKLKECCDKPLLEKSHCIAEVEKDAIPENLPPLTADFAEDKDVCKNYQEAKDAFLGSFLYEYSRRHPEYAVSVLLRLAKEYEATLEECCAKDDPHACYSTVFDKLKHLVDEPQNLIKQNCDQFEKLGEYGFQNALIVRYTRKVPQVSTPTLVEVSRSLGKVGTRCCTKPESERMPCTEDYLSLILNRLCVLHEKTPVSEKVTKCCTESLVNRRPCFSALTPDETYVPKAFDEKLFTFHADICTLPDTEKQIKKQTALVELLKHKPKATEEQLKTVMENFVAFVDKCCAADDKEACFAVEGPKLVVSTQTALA

T1 sequence (Q9NP84 29-78): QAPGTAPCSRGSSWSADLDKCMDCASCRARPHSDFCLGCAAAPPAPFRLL

B1: hFab 6.5 (Fab, V domains shown)
VH: QVQLVQSGGGLVKPGGSLRLSCAASGFTFTSYAMSWVRQAPGKGLEWVSAISGSGGSTYYADSVKGRFTISRDNPKNTLYLQMNSLRAEDTAVYYCARVRANYYYGMDVWGQGTLVTVSS
VL: LTQSPGTLSLSPGERATLSCRASQSVSSSTLAWYQQKPGQTPRLLIYGASTRATGIPARFSGSGSGTDFTLTISRLEPEDFAVYYCQQYGSSRLTFGGGTKVEIKR
notes: Human Fab from a phage display library, kappa light chain, expressed in the E. coli periplasm; also called clone 6.5; wildtype Fab 6.5
Binder B1 has a Kd [1] of 22.1 nM, a koff [1] of 0.00207 s⁻¹ and a kon [1] of 94000 M⁻¹ s⁻¹. B1: no binding (tested: 10 ug/ml) [2].
